# Test results from patent US20240174746A1 (Alector, published 2024).
# Columns and labels:
# mouse TMEM106B = target: T1, mouse TMEM106B (mouse, UniProt Q80X71 2-275); assay: flow cytometry, HEK293 cells transiently transfected with murine TMEM106B
# T1 construct: Full-length cDNA transiently transfected into HEK293 cells; also called muTMEM106B; murine TMEM106B
# Procedure: (§1) For screening of the hybridoma cell culture supernatants, humanTMEM106B-transfected HEK293 cells were aliquoted in 96-well round bottom plates (2×10⁵ cells per well) and incubated with 50 μL of hybridoma cell culture supernatant on ice for 30 minutes. […] Cell sorting was performed on a FACS Canto system (BD Biosciences) or iQue (Intellicyt), with sort gates drawn to exclude dead (i.e., propidium iodide-positive) cells. Median fluorescence intensity (MFI) of anti-mouse-APC MFI on TMEM106B+ HEK293 cells was calculated for each clone, and those displaying a signal of at least 2-fold over background compared to a secondary-antibody only well were taken forward for further analysis and characterization.
# human TMEM106B = target: T2, human TMEM106B (human, UniProt Q9NUM4 2-274); assay: flow cytometry, HEK293 cells transiently transfected with human TMEM106B
# T2 construct: Full-length cDNA transiently transfected into HEK293 cells; also called huTMEM106B
# Procedure: as §1
# [1] = target: T3, cynomolgus (cyno) TMEM106B (cynomolgus, UniProt Q9NUM4 2-274 (human entry)); assay: flow cytometry, HEK293 cells transiently transfected with cyno TMEM106B
# T3 construct: Full-length cDNA transiently transfected into HEK293 cells
# Procedure: as §1
Binder,fold-change in binding over parental HEK293 cells (mouse TMEM106B) [fold],fold-change in binding over parental HEK293 cells (human TMEM106B) [fold],fold-change in binding over parental HEK293 cells [1] [fold]
"TM-73 (antibody, V domains shown, Purified from mouse hybridoma) VH: QVQLQQPGAELVKPGASVKLSCKASGYTFTSHWMHWVKHRPGQGLEWIGEIDPSDSYTYYNQKFKGKATLTVDKSSSTVYMQLSSLTSEDSAVYYCARNYHGSGPPFAHWGQGTLVTVSS VL: QIVLTQSPAIMSASPGEKVTLTCSASSGISYIYWYQQRPGSSPRLLIYDTSNLASGVPVRFSGSGSETSYSLTISRLEAEDAATYYCHQWRSYPPTFGGGTKLEIR",0.59,2.57,1.15
"TM-76 (antibody, V domains shown, Purified from mouse hybridoma) VH: QVTLKESGPGILQPSQTLSLTCSFSGFSLSTSGMGVSWIRKPSGKGLEWLAHIFWDDDKRYNLFLKSRLTVSKDTSSNQVFLMITSVDTTDTATYYCARMGRQRDYFDYWGQGTSLTVSS VL: QIILTQSPAIMSASLGEEITLTCSASLSISYVHWYQQKSGASPKLLIYGTSNLASGVPSRFSGSGSGTFYSLTISSVEAEDAADYYCHQWSIYRTFGGGTKLEMK",0.7,6.52,4.35
"TM-56 (antibody, V domains shown, Purified from mouse hybridoma) VH: QVHLQQSGAELAKPGASVKLSCKASGYTFTSYWMHWVKQRPGQGLEWIGYINPSSGYSKYNQRFKDKATLTADKSSTTAYMHLSSLTYADSAVYYCTREGGSISDWYFDVWGTGTTVTVSS VL: DIEMTQAAPSVPVTPGESVSISCRSSKSLLQNNGNTYLYWFLQRPGQPPQLLIYRMSNLASGVPDRFSGSGSGTAFTLRISRVEAEDVGVYYCMQHLEYPYTFGGGTKLEIK",0.47,9.35,4.49
"TM-78 (antibody, V domains shown, Purified from mouse hybridoma) VH: QVQLQQPGAELVKPGASVKLSCKASGYTFTNHWMHWVRQRPGQGLEWIGNIDPSDSDTHYNHKFKDKATLIVDKSSSTAYLQLSSLTSEDSAVFYCARSRGGYYDYGEAMDYWGQGTSVTVSS VL: DIVMTQATPSIPVTPGESVSISCRSSKSLLHVNGNTYLFWFLQRPGQSPQLLIYRMSNLASGVPDRFSGSGSGTAFTLRISRVEAEDVGVYYCMQHLEYPFTFGSGTKLEIK",0.99,9.6,6.88

# Results, then the binder that gave them:
fold-change in binding over parental HEK293 cells (mouse TMEM106B) [fold],fold-change in binding over parental HEK293 cells (human TMEM106B) [fold],fold-change in binding over parental HEK293 cells [1] [fold],Binder
9.62,17.1,8.43,"TM-84 (antibody, V domains shown, Purified from mouse hybridoma) VH: QVQLQQSGAELVKPGASVKMSCKASGYTFTTFPIEWMKQNHGKSLEWIGNFHPYNDDTKYNEKFKGKATLTVEKSSSTVYLELSRLTSDDSAVYYCARYFYGGMDYWGQGTSVTVSS VL: DIQMTQSPASLSVSVGETVTITCRASENIYSSLGWYHQKQGKSPQLLVFAATNLADGVPSRFSGSGSGTQYSLKINSLQSEDFGTYYCQHLWSVPWTFGGGTKLEIK"
0.39,9.21,4.33,"TM-80 (antibody, V domains shown, Purified from mouse hybridoma) VH: QVQLQQPGAELVKPGASVKLSCKASGYTFTTFWMHWVKQRPGQGLEWIGNIDPSDSETHYNQEFKDKATLTVDRSSNTAYMQLSSLTSEDSAVYYCARSSNWDNFDYWGQGTAVTVSS VL: DIVMTQAAPSVPVTPGESVSISCRSSQSLLHVNGHTYLYWFLQRPGQSPQLLIYRMSNLASGVPDRFSGSGSGTVFTLRISRVETEDVGIYYCMQHLQYPFTFGSGTKLEIK"
0.19,0.26,0.18,"TM-85 (antibody, V domains shown, Purified from mouse hybridoma) VH: QVQLQQPGAELVRAGTSVKLSCKASGYTFIGYWMHWVKQRPGRGLEWIGRIDPYSGDTRYNEKFKNKATLTVDKPSSTAYMQLSSLTSEDSAVYYCARYGLGHAMDYWGQGTSVTVSS VL: DIAMSQSQKFMSTSVGDRVSVTCKASQNVGTNVAWYQQKPGQSPKALIYSASYRYSGVPDRFTGSGSGTDFTLTISNVQSEDLAEYFCQQYNSYPLTFGAGTKLEMK"
